{
  "source": "patent US20260258110A1",
  "about": "“VOLTAGE GATED SODIUM CHANNEL-SPECIFIC PEPTIDE APTAMERS AND USES THEREOF” (The Medical College of Wisconsin, Inc., priority 2023, published 2026)",
  "key": {"hNav1.7": {"target": "T1, hNav1.7 (Homo sapiens, UniProt Q15858)", "T1 construct": "the Nav1.7 antibody detected full-length Nav1.7 only in HEK1.7 cells", "test": "Whole-cell voltage-clamp of INa1.7 in HEK1.7 cells after plasmid transfection", "format": "cell-based", "details": "for INa1.7 in presence of NaviPA1 mutants: 3-4 days after transfection", "experimental": "The stable expression of each construct was verified by transfection into HEK293 cells stably expressing human wild-type Nav1.7 (HEK1.7 cells), followed by immunoblots (IB). Representative tests for GFPlinker (GFP), 1.7iPAs (1, 2, 3, 4, 6) were shown (FIG. 1H, I). Initial screening experiments by whole-cell voltage-clamp of INa1.7 in HEK1.7 cells, transfected with plasmids encoding nine 1.7iPAs (1.7iPA1-9), were performed to characterize the INa1.7. The presence of 9 different 1.7iPAs in HEK1.7 cells on peak INa1.7 density (3 days after transfection) were summarized in FIG. 1F, in which the data points recorded by at least 2 replicates were combined. […] These experiments thus identified 1.7iPA1 and 1.7iPA4 (both derived from ICL1), as well as 1.7iPA6 (from ICL2), as effective iPAs (>50% INa1.7 inhibition). We next focused on the validation of INa1.7 inhibition and channel kinetics by 1.7iPA1, 4, and 6 on HEK1.7 cells in new experiments. […] The 1.7iPA1 peptide is polyampholytic, enriched with 38.6% positively charged arginine or lysine (17/44), 23% of serine (10/44), 14% acidic residues (6/44); and is highly conserved between rodents and humans (FIG. 2F).\nEP recordings were performed, as we described previously with minor modifications at room temperature (22~25° C.) (10, 12), in a blind manner where the electrophysiologist was not aware of the treatment. Patch pipettes 0.9-2.5M2 resistance were formed from borosilicate glass (King Precision Glass Co., Claremont, CA) and fire polished. Recordings were made with an […] amplifier (Molecular Devices, Downingtown, PA). Signals were filtered at 5 kHz and sampled at 20 and 50 kHz (adopted from literature) (13-22) with a Digidata 1440A digitizer and pClamp10 software (Molecular Devices, San Jose, CA). Series resistance (3-5M (2) was monitored before and after the recordings, and data were discarded if the resistance changed by 20%. After achieving the whole-cell recording, capacitance (Cm) and series resistance (Rs) were compensated accordingly.\nSodium channel current (INa) recording in cultured cell lines. Whole-cell voltage-clamp to recording INa was performed in HEK1.7, HEK1.1, HEK1.3, HEK1.6, HEK1.5, HEK1.8, CHO1.8, NG108-15 cells, and F11cells in current-density (I-V) and fast-inactivation voltage protocols. External solution consists of the following (in mM): 110 NaCl, 20 tetraethylammonium-Cl, […]), 0.1 CaCl2, 5 MgCl2, 10 HEPES and 5.56 mM glucose (pH 7.4, 310-315 mosM/L). The internal pipette solution consisted of (in mM): 10 NaCl, 130 CsCl, 5 MgCl2, 5 EGTA, 2.5 Na2+ATP and 10 HEPES (pH 7.2). After formation of a tight seal (maximal leak amplitude <150 pA), membrane resistance and capacitance were determined. The voltage dependence of activation was assessed from holding potential using 50 ms pulses (test-pulse) to a range of test potentials from −100 mV to +50 mV in 5 mV or 10 mV incremental steps with an interval of 5 s. Current density was calculated by normalizing maximal peak currents with cell capacitance. The voltage dependence of steady-state fast inactivation was measured using a two-step protocol. A 500 ms pre-pulse with various potentials ranging from Vhold to +10 mV in 5 or 10 mV incremental steps was used to inactivate the channels. This pre-pulse was immediately followed by a 40 ms test-pulse at 0 mV to determine the remaining fraction of available channels. Inward current measured during the test-pulse to 0 mV was normalized to the cell's maximum test-pulse inward current. To determine the conductance-voltage (I-V) relationships of voltage-dependent activation, the peak current densities during each voltage command step were fitted to a smooth curve with a Boltzmann equation: I=Gmax (V-Erev)/[(1+exp [(V−V50)/k))], which provided the maximum conductance (Gmax). Normalized activation curves were fitted with a Boltzmann equation G/Gmax=1/(1+exp (V50-Vm)/k), where G was calculated as follows: G=I/(Vm−Erev). […]"}, "human Nav1.8": {"target": "T2, human Nav1.8 (Homo sapiens, UniProt Q9Y5Y9, DEL1030-1030/M1713V)", "T2 construct": "cell line made in house", "T2 sequence (Q9Y5Y9 with tags, fused parts or gaps DEL1030-1030/M1713V)": "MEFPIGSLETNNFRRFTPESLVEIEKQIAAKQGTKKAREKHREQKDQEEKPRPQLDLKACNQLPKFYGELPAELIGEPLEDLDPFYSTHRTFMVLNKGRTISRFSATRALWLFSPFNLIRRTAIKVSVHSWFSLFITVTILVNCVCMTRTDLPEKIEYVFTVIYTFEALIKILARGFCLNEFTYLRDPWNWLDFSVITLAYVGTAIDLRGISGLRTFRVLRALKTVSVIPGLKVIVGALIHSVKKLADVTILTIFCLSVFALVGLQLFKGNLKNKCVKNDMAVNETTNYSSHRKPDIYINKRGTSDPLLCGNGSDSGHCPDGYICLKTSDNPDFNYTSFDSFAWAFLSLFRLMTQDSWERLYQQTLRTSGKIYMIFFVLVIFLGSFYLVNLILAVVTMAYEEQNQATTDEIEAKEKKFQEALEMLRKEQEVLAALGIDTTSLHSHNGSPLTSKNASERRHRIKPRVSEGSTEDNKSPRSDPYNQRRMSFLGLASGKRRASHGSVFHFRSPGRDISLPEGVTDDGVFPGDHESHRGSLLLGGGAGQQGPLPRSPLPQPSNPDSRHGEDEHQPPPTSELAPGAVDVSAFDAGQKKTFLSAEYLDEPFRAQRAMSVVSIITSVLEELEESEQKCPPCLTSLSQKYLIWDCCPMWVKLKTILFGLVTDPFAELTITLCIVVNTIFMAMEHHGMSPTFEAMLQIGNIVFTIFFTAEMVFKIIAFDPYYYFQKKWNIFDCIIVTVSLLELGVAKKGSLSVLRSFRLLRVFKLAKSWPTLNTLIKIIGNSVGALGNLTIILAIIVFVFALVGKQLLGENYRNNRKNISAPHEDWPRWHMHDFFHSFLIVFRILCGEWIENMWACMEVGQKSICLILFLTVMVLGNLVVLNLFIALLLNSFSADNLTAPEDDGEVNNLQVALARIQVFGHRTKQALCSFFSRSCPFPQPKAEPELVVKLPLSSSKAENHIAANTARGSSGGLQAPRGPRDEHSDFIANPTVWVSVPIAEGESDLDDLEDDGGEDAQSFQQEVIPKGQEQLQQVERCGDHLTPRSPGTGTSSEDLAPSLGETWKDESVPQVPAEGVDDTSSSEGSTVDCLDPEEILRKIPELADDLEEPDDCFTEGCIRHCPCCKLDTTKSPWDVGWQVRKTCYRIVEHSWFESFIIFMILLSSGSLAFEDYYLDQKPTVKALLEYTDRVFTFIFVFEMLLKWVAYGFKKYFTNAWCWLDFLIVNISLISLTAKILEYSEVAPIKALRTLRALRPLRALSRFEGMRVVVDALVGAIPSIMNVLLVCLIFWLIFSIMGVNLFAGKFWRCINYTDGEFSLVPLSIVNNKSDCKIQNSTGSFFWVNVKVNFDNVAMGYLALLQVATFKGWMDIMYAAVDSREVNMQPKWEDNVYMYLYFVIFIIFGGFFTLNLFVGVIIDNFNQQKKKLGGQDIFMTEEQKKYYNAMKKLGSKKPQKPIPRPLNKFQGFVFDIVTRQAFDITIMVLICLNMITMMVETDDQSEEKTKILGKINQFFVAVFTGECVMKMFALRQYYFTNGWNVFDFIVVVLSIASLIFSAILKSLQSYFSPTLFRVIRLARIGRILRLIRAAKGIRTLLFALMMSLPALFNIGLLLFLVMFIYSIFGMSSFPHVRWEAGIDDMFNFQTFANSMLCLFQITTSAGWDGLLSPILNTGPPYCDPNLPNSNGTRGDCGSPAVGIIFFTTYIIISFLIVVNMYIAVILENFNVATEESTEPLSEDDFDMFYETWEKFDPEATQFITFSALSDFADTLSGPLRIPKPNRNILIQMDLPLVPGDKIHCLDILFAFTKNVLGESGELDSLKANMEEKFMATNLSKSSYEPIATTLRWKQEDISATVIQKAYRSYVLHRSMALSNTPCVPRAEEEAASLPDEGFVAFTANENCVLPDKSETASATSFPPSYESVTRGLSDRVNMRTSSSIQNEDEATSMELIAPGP", "test": "Whole-cell voltage-clamp of INa1.8 in HEK1.8 stable cells", "format": "cell-based", "set-up": "sensitivity of INa1.8 to channel blocker: dose or concentration left out as unconfirmed"}, "BK potassium channels": {"test_system": "BK potassium channels", "test": "BK IKv recording in NG108-15 cells", "format": "cell-based"}, "[1]": {"test_system": "mechanical hypersensitivity", "details": "after i.p. injection; cited from earlier work"}, "DRG neurons": {"test_system": "DRG neurons", "test": "Whole-cell current-clamp of dissociated DRG neurons from TNI rats (excitability)", "format": "cell-based, rat", "details": "transduced small/medium-sized DRG neurons, male TNI rats, compared to sham", "description": "Increased excitability of nociceptive PSNs is a fundamental process underlying neuropathic pain (46). We therefore examined whether AAV6-NaviPA1 treatment reverses the enhanced neuronal excitability of nociceptive PSNs following TNI (12, 47), using the whole-cell current-clamp AP recording of DRG dissociated neurons from rats after the treatment protocol shown in FIG. 7B. […] We therefore recorded from randomly chosen small/medium-sized neurons (<35 μm in diameter) (51) in the cultures from dissociated L4 and L5 DRG. Transduced neurons were identified by GFP fluorescence, and excitability was evaluated by measuring rheobase and repetitive action potential (AP) firing during 250 ms current pulses stepping from 100 pA and 280 pA current injection. […]\nWhole-cell current-clamp recording on dissociated DRG neurons (male rats). […] The membrane input resistance was calculated by dividing the ending amplitude of steady-state hyperpolarizing voltage deflection by the injected current (27). […] The baseline potentials were recorded for 20 ms before the stimulus pulses were injected into the neurons. […] AP frequency was determined by quantifying the number of APs elicited in response to depolarizing current injections (250 ms)."}, "Nav1.7": {"target": "T3, Nav1.7 (Homo sapiens, UniProt Q15858)", "T3 construct": "the Nav1.7 antibody detected full-length Nav1.7 only in HEK1.7 cells", "T3 sequence (Q15858 whole entry)": "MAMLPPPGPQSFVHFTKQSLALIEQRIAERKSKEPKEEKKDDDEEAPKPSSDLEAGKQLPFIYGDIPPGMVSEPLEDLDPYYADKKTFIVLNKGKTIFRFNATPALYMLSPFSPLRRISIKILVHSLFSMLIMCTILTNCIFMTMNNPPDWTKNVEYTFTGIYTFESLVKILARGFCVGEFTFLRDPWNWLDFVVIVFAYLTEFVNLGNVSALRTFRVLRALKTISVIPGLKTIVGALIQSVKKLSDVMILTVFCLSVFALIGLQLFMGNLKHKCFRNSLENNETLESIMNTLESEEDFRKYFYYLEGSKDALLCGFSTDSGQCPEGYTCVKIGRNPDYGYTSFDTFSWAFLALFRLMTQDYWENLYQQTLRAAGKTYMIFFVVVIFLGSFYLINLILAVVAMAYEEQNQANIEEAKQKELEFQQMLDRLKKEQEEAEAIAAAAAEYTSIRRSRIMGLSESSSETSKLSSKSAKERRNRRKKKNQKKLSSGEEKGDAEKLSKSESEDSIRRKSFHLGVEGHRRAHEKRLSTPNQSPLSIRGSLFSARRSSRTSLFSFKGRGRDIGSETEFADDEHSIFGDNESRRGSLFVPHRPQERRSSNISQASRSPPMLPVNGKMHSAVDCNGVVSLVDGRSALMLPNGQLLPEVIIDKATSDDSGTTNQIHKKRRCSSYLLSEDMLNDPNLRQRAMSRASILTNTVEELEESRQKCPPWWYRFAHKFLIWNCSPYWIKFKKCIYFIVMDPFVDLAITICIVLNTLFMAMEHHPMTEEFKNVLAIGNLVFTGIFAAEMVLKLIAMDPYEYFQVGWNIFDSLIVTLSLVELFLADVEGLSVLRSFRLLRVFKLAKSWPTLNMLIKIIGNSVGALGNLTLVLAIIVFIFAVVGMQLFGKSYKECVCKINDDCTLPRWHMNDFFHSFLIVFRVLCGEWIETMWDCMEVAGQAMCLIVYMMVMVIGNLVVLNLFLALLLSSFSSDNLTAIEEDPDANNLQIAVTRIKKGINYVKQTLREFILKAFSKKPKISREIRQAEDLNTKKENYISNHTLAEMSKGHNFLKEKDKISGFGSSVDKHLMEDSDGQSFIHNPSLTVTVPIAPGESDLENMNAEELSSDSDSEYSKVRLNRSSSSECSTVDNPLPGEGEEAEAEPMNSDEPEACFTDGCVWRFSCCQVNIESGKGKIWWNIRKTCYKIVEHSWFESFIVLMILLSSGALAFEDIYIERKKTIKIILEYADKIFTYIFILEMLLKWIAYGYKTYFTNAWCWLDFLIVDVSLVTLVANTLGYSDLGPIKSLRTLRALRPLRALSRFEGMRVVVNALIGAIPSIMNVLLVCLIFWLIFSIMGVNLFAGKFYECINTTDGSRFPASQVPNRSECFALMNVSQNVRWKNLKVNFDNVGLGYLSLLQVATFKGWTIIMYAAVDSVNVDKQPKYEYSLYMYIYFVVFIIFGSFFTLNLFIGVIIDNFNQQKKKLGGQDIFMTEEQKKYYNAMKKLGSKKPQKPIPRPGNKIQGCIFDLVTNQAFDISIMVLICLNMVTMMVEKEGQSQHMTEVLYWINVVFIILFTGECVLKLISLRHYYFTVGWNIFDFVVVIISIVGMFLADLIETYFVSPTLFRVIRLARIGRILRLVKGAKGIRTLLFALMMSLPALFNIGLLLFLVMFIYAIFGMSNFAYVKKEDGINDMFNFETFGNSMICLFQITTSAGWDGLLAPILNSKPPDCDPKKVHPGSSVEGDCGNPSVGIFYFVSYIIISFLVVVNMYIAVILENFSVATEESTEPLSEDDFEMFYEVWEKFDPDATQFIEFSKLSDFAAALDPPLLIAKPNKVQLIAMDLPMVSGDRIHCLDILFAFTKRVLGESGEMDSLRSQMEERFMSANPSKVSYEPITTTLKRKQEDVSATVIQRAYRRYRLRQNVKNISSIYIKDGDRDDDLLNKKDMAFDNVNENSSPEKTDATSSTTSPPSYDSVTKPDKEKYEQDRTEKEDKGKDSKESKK", "test": "Immunoblot of membrane Nav1.7 in fractionated HEK1.7 cells (intracellular trafficking)", "format": "cell-based", "details": "fractionated HEK1.7 cells after transfection", "experimental": "Since Nav1.7 is an integral membrane protein, we therefore tested whether NaviPA1 expression in the HEK1.7 cells would interrupt Nav1.7 intracellular trafficking. […] Studies have shown that IDRs in the membrane proteins engage in interactions with the membrane (33). To test whether NaviPA1 interference of Nav1.7 might be via […] of Nav1.7, GFP affinity pull-down by ChromoTek GFP-Trap (ChromoTek, Rosemont, IL) was performed after transfection of GFP-NaviPA1 in HEK1.7 cells using GFPlinker (GFP) and GFP-1.7iPA2 (FIG. 1) as the controls. Cell lysates were prepared by a lysis buffer containing 0.5% Nonidet p40, a ‘non-denaturing’ mild lysis detergent, for preventing interaction breaking and maximizing the retention of NaviPA1-protein interactions (34). […] It has been reported that polybasic IDRs in transmembrane proteins preferably bind to negatively charged lipids (36, 37). We reasoned that NaviPA1 might be able to bind phosphoinositides, and this hypothesis was tested by using phosphatidylinositol phosphate (PIP) strips (Echelon PIP Strip, Salt Lake City, UT). […]\nNaviPA1 is a polybasic arginine/lysine and serine-enriched peptide. […] However, the full-length Nav1.7 membrane integration, which is determined by its TM domains but not intracellular sequences, was unaffected in the presence of NaviPA1 (FIG. 6F). […]"}, "[2]": {"details": "HEK1.7 cells, initial screening"}},
  "note": "Where two headings read alike, the source gives them in different places. No end group written: not given here.",
  "data": [
    {"molecule": "1.7/1.8iPA: disordered polyacidic 38mer from Nav1.7 intracellular loop 2 with AnkG and Pdzd2-I binding domains; dual Nav1.7/1.8 inhibitory peptide aptamer (PGESDLEIMNTEELSSDSDSDYSKEKRNRSSSSECSTV)", "values": [
      {"measurement": "effect on INa1.7", "setting": "hNav1.7; preliminary data, 38mer expressed in HEK1.7 cells", "value": "inhibits"},
      {"measurement": "Nav1.7 voltage-gated activation", "setting": "hNav1.7; preliminary data, HEK1.7 cells", "value": "possibly desensitized"},
      {"measurement": "effect on INa1.8", "setting": "human Nav1.8; preliminary data, expression in HEK1.8 cells", "value": "suppresses"},
      {"measurement": "effect on BK IKv", "setting": "BK potassium channels", "value": "No change"}
    ]},
    {"molecule": "COc1cc(NC(=O)c2ccc(-c3ccc(Cl)cc3)o2)cc(OC)c1", "note": "[A803467, reference compound]", "values": [
      {"measurement": "INa1.8 inhibition", "setting": "human Nav1.8; 100 nM, HEK1.8 cells", "value": 85, "unit": "%"},
      {"measurement": "sensitivity of INa1.8 to channel blocker", "setting": "human Nav1.8; HEK1.8 cells", "value": "sensitive"}
    ]},
    {"molecule": "NC1=N[C@H](O)[C@H]2[C@H]3O[C@]4(O)O[C@@H]([C@@H](O)[C@@]2(N1)[C@@H]4O)[C@]3(O)CO", "note": "[TTX, tetrodotoxin, reference compound]", "values": [
      {"measurement": "Peak INa1.7", "setting": "hNav1.7", "value": "2 ± 1 (10) pA/pF"},
      {"measurement": "sensitivity of INa1.8 to channel blocker", "setting": "human Nav1.8", "value": "resistant"}
    ]},
    {"molecule": "NCC1(CC(=O)O)CCCCC1", "note": "[gabapentin, Gabapentin]", "values": [
      {"measurement": "time of maximal reduction of mechanical hypersensitivity", "setting": "[1]", "value": "30 to 60", "unit": "min"}
    ]},
    {"molecule": "Nav1.7iPA3: inert peptide from N-terminus of Nav1.7 (SEQ ID NO: 3), used as control NP (SEEKAKEHKDEKKDDEEEGPKPSSDLEAGKQ)", "values": [
      {"measurement": "Activation V50", "setting": "hNav1.7; [2]", "value": "25.4 ± 1.2 (22) mV"},
      {"measurement": "Inactivation V50", "setting": "hNav1.7; [2]", "value": "61.6 ± 2 (18) mV"},
      {"measurement": "Peak INa1.7", "setting": "hNav1.7; HEK1.7 cells, initial screening after plasmid transfection, value ± spread, (n) in cell", "value": "118 ± 1 (22) pA/pF"},
      {"measurement": "effect on peak INa1.7 density", "setting": "hNav1.7; compared to sham transfected HEK1.7 cells", "value": "no significant effects"},
      {"measurement": "rheobase and frequency of evoked APs in neurons from TNI rats", "setting": "DRG neurons", "value": "no significant effects"}
    ]},
    {"molecule": "NaviPA1mt1: GFP-fused NaviPA1 mutant, alanine substitution for ten serine residues (AAKAAKERRNRRKKKKQKMAAGEEKGDDEKLAKAGAEEAIRKKA; also: GFP fusion)", "values": [
      {"measurement": "INa1.7 in presence of NaviPA1 mutants", "setting": "hNav1.7; HEK1.7 cells", "value": "comparable to naïve and GFPNP transfected HEK1.7 cells"},
      {"measurement": "effect on INa1.8", "setting": "human Nav1.8; HEK1.8 cells", "value": "did not change"},
      {"measurement": "membrane Nav1.7 protein / Nav1.7 membrane integration", "setting": "Nav1.7", "value": "not to impede"}
    ]},
    {"molecule": "NaviPA1mt2: GFP-fused NaviPA1 mutant, alanine substitution for nine arginine or lysine within predicted polybasic NLS (SSKSAKEAANAAAAAAQAMSSGEEKGDDEKLSKSGSEESIRKKS; also: GFP fusion)", "values": [
      {"measurement": "INa1.7 in presence of NaviPA1 mutants", "setting": "hNav1.7; HEK1.7 cells", "value": "comparable to naïve and GFPNP transfected HEK1.7 cells"},
      {"measurement": "effect on INa1.8", "setting": "human Nav1.8; HEK1.8 cells", "value": "did not change"},
      {"measurement": "membrane Nav1.7 protein / Nav1.7 membrane integration", "setting": "Nav1.7", "value": "not to impede"}
    ]}
  ]
}
